From patent CN117843776A

Target: IL-17RA and IL-17RC co-expressed on 293F-IL-17RA-IL-17Rc-ACT1-NFκB-Luc reporter cells (Homo sapiens (Human)) (UniProt Q96F46)
Assay: FACS, IL-17A recombinant protein on 293F-IL-17RA-IL-17Rc-ACT1-NFκB-Luc cells

Chain of UniProt Q96F46 (Q96F46 33-866 limits assumed, chain 1 of 2): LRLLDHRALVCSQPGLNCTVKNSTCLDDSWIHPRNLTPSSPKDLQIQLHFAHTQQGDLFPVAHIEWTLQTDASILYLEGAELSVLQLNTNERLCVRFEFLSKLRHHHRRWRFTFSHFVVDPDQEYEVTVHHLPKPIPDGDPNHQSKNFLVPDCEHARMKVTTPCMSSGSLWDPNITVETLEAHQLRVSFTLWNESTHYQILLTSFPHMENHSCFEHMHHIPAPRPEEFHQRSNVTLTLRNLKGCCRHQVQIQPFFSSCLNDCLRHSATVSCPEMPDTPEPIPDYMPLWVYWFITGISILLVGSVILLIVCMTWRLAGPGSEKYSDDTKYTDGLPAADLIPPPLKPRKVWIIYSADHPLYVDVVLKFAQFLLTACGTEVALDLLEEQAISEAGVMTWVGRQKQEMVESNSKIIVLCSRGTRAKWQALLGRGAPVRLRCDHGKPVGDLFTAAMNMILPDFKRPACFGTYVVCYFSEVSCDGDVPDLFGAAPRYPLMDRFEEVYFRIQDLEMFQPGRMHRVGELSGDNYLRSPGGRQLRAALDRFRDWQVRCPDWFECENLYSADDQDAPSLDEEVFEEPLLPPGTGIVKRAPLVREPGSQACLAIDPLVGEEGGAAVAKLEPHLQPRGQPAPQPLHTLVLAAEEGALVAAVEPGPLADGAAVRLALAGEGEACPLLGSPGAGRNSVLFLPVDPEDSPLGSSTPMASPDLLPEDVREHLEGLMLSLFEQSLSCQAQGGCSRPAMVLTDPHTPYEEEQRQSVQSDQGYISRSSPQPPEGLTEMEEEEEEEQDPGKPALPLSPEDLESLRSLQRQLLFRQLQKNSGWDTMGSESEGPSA
Chain of UniProt Q96F46 (chain, as listed by the source limits assumed, chain 2 of 2): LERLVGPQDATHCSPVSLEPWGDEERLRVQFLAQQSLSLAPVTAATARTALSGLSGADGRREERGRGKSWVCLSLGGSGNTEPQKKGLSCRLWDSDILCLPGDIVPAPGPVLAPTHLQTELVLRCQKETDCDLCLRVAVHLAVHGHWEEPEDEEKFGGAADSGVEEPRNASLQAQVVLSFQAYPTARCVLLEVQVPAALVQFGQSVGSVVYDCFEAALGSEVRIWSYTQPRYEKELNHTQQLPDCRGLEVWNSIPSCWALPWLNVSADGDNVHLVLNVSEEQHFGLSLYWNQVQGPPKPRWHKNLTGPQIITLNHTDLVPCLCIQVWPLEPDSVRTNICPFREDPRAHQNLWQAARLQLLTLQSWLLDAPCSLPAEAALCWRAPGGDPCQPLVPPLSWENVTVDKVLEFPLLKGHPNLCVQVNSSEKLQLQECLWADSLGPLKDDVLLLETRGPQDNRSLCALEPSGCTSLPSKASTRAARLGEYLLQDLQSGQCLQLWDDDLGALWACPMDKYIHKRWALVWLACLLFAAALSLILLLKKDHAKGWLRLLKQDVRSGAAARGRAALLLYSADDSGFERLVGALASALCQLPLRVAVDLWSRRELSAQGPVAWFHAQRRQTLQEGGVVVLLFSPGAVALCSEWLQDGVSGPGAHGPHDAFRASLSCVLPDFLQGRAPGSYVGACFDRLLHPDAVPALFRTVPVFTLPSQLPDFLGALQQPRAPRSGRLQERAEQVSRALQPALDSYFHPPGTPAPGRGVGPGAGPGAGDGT

- 阳性率: > 90 %
Substance: Human IL-17A重组蛋白 (C-terminal 6xHis) (from UniProt Q16552 24-155) (ligand)
